Consider 120 sequences from the supplement of paper PMC10126150.

± gives the standard deviation of the averaged measurements.
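Note: ATP exposure 15 min at 22 °C before imaging.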

For the data set, the system named is ATP. As to the kind of experiment: switch fluorescence ratio, 500 uM ATP over buffer (Cy3 cluster intensity, sum of 5 cycles each) (fold (ratio)); higher = stronger signal-on switching upon ATP binding; sequences stand for … in TCGTCGGCAGCGTCAGATGTGTATAAGAGACAGTTTTTTTTTTTTTTTTTTTTTTTTT…TC. The conditions noted are these: aptamer strand: ATP DNA aptamer (quencher-CACCTGGGGGAGTATTGCGGAGGAAGG + anchor), 100 nM annealed; ATP concentration: 500 uM. Put shortly: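 For every switch-domain sequence, the fluorescence ratio is the mean of per-cluster values, each being summed target-cycle Cy3 intensity over summed buffer-cycle Cy3 intensity. Clusters outside 100-1000 RFU were excluded. On a modified Illumina MiSeq flow-cell, the Cy3-labelled switching-strand clusters were annealed to 100 nM quencher-labelled ATP aptamer, imaged in selection buffer and then after 15 min with 500 uM ATP at 22 °C. Five such cycles were run, with NaOH stripping and re-annealing between them.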
For the sequence TATGTCATAC, the switch fluorescence ratio stood at 1.14 ± 0.058.

As to ATTATAAGGT, the switch fluorescence ratio is 1.06 ± 0.0055.

Take TGTGTGAATG: the switch fluorescence ratio was 1.03 ± 0.037.

For the sequence TCTGCTAGTT, the switch fluorescence ratio turned out to be 1.02 ± 0.021.

For GGGCCAGTTG, the switch fluorescence ratio was 1.0149 ± 0.00024.

In the case of TTACTGCGGT, the switch fluorescence ratio came to 1.014 ± 0.0034.

As for TATGGAGATA, the switch fluorescence ratio is 0.999 ± 0.013.

Regarding TCGCCCTCCA, the switch fluorescence ratio is 1.26 ± 0.12.

Consider ATATTTTCAG, for which the switch fluorescence ratio turned out to be 0.994 ± 0.012.

With GAGAATTATG, the switch fluorescence ratio came to 0.9933 ± 0.0023.

In the case of ATGCTATGTA, the switch fluorescence ratio is 1.01 ± 0.033.

Consider GCGCGGGGCC, for which the switch fluorescence ratio was determined as 0.999 ± 0.032.

As to AGGTGTCGTC, the switch fluorescence ratio turned out to be 0.975 ± 0.018.

Take GGGTTCATTG: the switch fluorescence ratio came to 0.974 ± 0.033.

As to GAAAAATGCC, the switch fluorescence ratio was 1.05 ± 0.05.

With TTTGCAGCGG, the switch fluorescence ratio was 1.02 ± 0.012.

With ACTCTTACTT, the switch fluorescence ratio stood at 1.157 ± 0.0042.

On to CAAAGGTACA, for which the switch fluorescence ratio is 1.008 ± 0.0063.

Consider AACGGTGACG, for which the switch fluorescence ratio was 1.03 ± 0.072.

As to TTTTGCATGA, the switch fluorescence ratio was 1 ± 0.043.

Consider GAAATAGGGC, for which the switch fluorescence ratio is 0.997 ± 0.0058.

On to CGACAGGATG, for which the switch fluorescence ratio came to 1.01 ± 0.033.

Regarding GGTATTTAAA, the switch fluorescence ratio came out at 0.982 ± 0.029.

For TCAGGGGGAT, the switch fluorescence ratio came to 1.02 ± 0.028.

TATTGGAGAT: the switch fluorescence ratio stood at 1 ± 0.021.

Take TCGAATGGGG: the switch fluorescence ratio stood at 0.961 ± 0.014.

In the case of GGGGGTATTT, the switch fluorescence ratio was determined as 1 ± 0.018.

Regarding ATTTGTTCTG, the switch fluorescence ratio was determined as 0.962 ± 0.038.

Turning to GGGCAGAAAG, the switch fluorescence ratio was determined as 1.01 ± 0.075.

TCCAGGTAGT: the switch fluorescence ratio came to 1.594 ± 0.012.

TCCTCAAGTT: the switch fluorescence ratio was 1.23 ± 0.015.

Consider TTGTGAGTGG, for which the switch fluorescence ratio is 0.976 ± 0.017.

For the sequence TCGCATTTTT, the switch fluorescence ratio came to 1.11 ± 0.13.

As for CGGGTCTTGT, the switch fluorescence ratio came to 0.98864 ± 0.00032.

In the case of TTGTAGAAAA, the switch fluorescence ratio was 1.3 ± 0.37.

Turning to CCATGTGTAG, the switch fluorescence ratio amounted to 1 ± 0.017.

As for GGGGTTGTCA, the switch fluorescence ratio was found to be 0.99 ± 0.058.

On to AAGTGAGTAG, for which the switch fluorescence ratio is 1.004 ± 0.01.

In the case of ATTATTGGGC, the switch fluorescence ratio worked out at 0.981 ± 0.035.

As to CGTGCTTGTA, the switch fluorescence ratio was 1.01 ± 0.025.

As for TGCGAAACTT, the switch fluorescence ratio worked out at 1.07 ± 0.011.

With CTGGGGGAGT, the switch fluorescence ratio is 1 ± 0.012.

Take GTAACTCGAA: the switch fluorescence ratio is 0.98231 ± 0.00092.

Take TGAAGTCG: the switch fluorescence ratio was 0.999 ± 0.027.

AAAAGGCATA: the switch fluorescence ratio is 1.03 ± 0.046.

For TCAGATTGGC, the switch fluorescence ratio was 1.04 ± 0.12.

With TGCCAATATC, the switch fluorescence ratio amounted to 1.7 ± 0.08.

TTACTATGTA: the switch fluorescence ratio stood at 1.02 ± 0.019.

As for ATCCCGAAGC, the switch fluorescence ratio was found to be 1.93 ± 0.18.

For GGTCGTAGAT, the switch fluorescence ratio was 1.01 ± 0.036.

For TCCAAGTGTG, the switch fluorescence ratio is 1.03 ± 0.021.

GGGGTAGGGA: the switch fluorescence ratio was found to be 1 ± 0.019.

ACAGTATGGT: the switch fluorescence ratio worked out at 1.02 ± 0.029.

For TTTGAGATTG, the switch fluorescence ratio came out at 0.99556 ± 0.00097.

In the case of TATGGGGGTC, the switch fluorescence ratio turned out to be 1.02 ± 0.015.

In the case of CAATGCGTTT, the switch fluorescence ratio worked out at 0.998 ± 0.038.

Turning to GCTTAGGATT, the switch fluorescence ratio came out at 1.01 ± 0.033.

As to TTTGTTTCT, the switch fluorescence ratio was 0.968 ± 0.01.

As to GAAGGAGAAG, the switch fluorescence ratio amounted to 0.955 ± 0.0083.

For AAGTCAATGT, the switch fluorescence ratio was found to be 1.015 ± 0.0027.

On to ATTGGGGGTT, for which the switch fluorescence ratio is 0.978 ± 0.018.

For GCAATCGTGG, the switch fluorescence ratio is 1.035 ± 0.0042.

As to CTGTAAGTCT, the switch fluorescence ratio turned out to be 0.989 ± 0.011.

For the sequence TAGATTCAGG, the switch fluorescence ratio turned out to be 1.004 ± 0.0054.

Regarding GCTACCGGTG, the switch fluorescence ratio was 1.1 ± 0.072.

On to TATGAGAAGC, for which the switch fluorescence ratio is 1 ± 0.017.

Take AATAGGGGAA: the switch fluorescence ratio came to 1.01 ± 0.042.

In the case of CGGCGGCGGG, the switch fluorescence ratio worked out at 1.03 ± 0.015.

TATCTTACGA: the switch fluorescence ratio was found to be 1.02 ± 0.041.

Take CAAGGGTATT: the switch fluorescence ratio stood at 1.01 ± 0.017.

In the case of TGCCCCGATA, the switch fluorescence ratio stood at 2.66 ± 2.3.

For ATTGGGATGG, the switch fluorescence ratio was 1 ± 0.014.

For GGTACTCATC, the switch fluorescence ratio was found to be 1.02 ± 0.052.

As to ACTATCGGTT, the switch fluorescence ratio was found to be 1.07 ± 0.075.

Consider GTTCTTTTAT, for which the switch fluorescence ratio is 1.01 ± 0.024.

For CGGGTGAGGG, the switch fluorescence ratio turned out to be 1.017 ± 0.0065.

With GGGGCGTCGT, the switch fluorescence ratio was determined as 1.02 ± 0.029.

Take AAAAAGGGTA: the switch fluorescence ratio was 0.988 ± 0.05.

Consider TGTATTCGGG, for which the switch fluorescence ratio was 0.978 ± 0.01.

Take TTGGGGCCGT: the switch fluorescence ratio came to 1.04 ± 0.047.

Take ATTATGGTTC: the switch fluorescence ratio was 1 ± 0.021.

As to ATATAAGTGA, the switch fluorescence ratio was 0.9543 ± 0.0063.

Regarding GACTGGGGAC, the switch fluorescence ratio worked out at 1.01 ± 0.012.

Turning to ATGCTGGGTC, the switch fluorescence ratio worked out at 0.973 ± 0.028.

On to ATCATTAGGG, for which the switch fluorescence ratio is 0.976 ± 0.032.

Consider TTGCCTTTTG, for which the switch fluorescence ratio came to 1.08 ± 0.16.

As for TTAAGAATGC, the switch fluorescence ratio amounted to 1.07 ± 0.12.

For AGAGACACAT, the switch fluorescence ratio amounted to 1 ± 0.0086.

For TTATTGCATG, the switch fluorescence ratio amounted to 0.96 ± 0.013.

Consider CTAGGGAAAG, for which the switch fluorescence ratio came out at 0.989 ± 0.057.

For the sequence AAAAGTTTTT, the switch fluorescence ratio is 0.997 ± 0.025.

Take GAGGGTTGGC: the switch fluorescence ratio turned out to be 0.95 ± 0.084.

On to TAAGGGTCTT, for which the switch fluorescence ratio was found to be 0.996 ± 0.047.

ACAAGGAGGC: the switch fluorescence ratio is 0.983 ± 0.014.

As for TTGGTTCATT, the switch fluorescence ratio was determined as 1.01 ± 0.021.

Regarding GGGAAGGTCT, the switch fluorescence ratio worked out at 0.994 ± 0.03.

Take TAGCGCAGGC: the switch fluorescence ratio was determined as 0.996 ± 0.025.

Turning to CCAGATTTTA, the switch fluorescence ratio was found to be 0.992 ± 0.015.

On to AGGAATAAGT, for which the switch fluorescence ratio was 1.11 ± 0.16.

On to TGTGAGTTTT, for which the switch fluorescence ratio is 0.974 ± 0.014.

Turning to GTTGATAGGA, the switch fluorescence ratio worked out at 0.988 ± 0.03.

On to AATTAACTCT, for which the switch fluorescence ratio was 1.05 ± 0.02.

As for TTAATGCTAT, the switch fluorescence ratio was found to be 0.9836 ± 0.0043.

TTTTAGGTGC: the switch fluorescence ratio worked out at 1.09 ± 0.099.

For the sequence TTTATTCGCG, the switch fluorescence ratio came out at 1.03 ± 0.029.

Take TATAAAACCC: the switch fluorescence ratio is 1.1 ± 0.045.

In the case of GAGAGTATGG, the switch fluorescence ratio came to 0.982 ± 0.049.

As for GCGAGGTGGG, the switch fluorescence ratio turned out to be 0.999 ± 0.049.

With AGTAAACCAT, the switch fluorescence ratio is 1.04 ± 0.03.

As to TTCTAATCGG, the switch fluorescence ratio came out at 1.006 ± 0.01.

As for GTGGGGTCGT, the switch fluorescence ratio turned out to be 0.926 ± 0.045.

For the sequence AGATTTTTCA, the switch fluorescence ratio was determined as 1 ± 0.021.

In the case of GATTGGTCTT, the switch fluorescence ratio was 0.976 ± 0.03.

Turning to GGGGCAGGGT, the switch fluorescence ratio amounted to 1.03 ± 0.064.

For GCCTTGGACT, the switch fluorescence ratio was 0.976 ± 0.027.

Regarding GATTTTAGAC, the switch fluorescence ratio worked out at 0.995 ± 0.015.

Turning to GTAGGCGGTG, the switch fluorescence ratio was determined as 0.984 ± 0.029.

Take TCGTATTGGT: the switch fluorescence ratio came to 1.02 ± 0.023.

In the case of CCAAAGGTTT, the switch fluorescence ratio was determined as 1.13 ± 0.22.

For AAGGTCGGTA, the switch fluorescence ratio turned out to be 1.001 ± 0.0024.
